In article doi:10.1101/2021.08.20.457142:

B1: MKK7 D-site peptide (second D-site) / JNK1 alpha1 (MAPK8 isoform 1) L198A, full length (parent complex)
chain 1: SQPQRPRPTLQLPLANEAFEQP
chain 2: MSRSKRDNNFYSVEIGDSTFTVLKRYQNLKPIGSGAQGIVCAAYDAILERNVAIKKLSRPFQNQTHAKRAYRELVLMKCVNHKNIIGLLNVFTPQKSLEEFQDVYIVMELMDANLCQVIQMELDHERMSYLLYQMLCGIKHLHSAGIIHRDLKPSNIVVKSDCTLKILDFGLARTAGTSFMMTPYVVTRYYRAPEVIAGMGYKENVDLWSVGCIMGEMVCHKILFPGRDYIDQWNKVIEQLGTPCPEFMKKLQPTVRTYVENRPKYAGYSFEKLFPDVLFPADSEHNKLKASQARDLLSKMLVIDASKRISVDEALQHPYINVWYDPSEAEAPPPKIPDKQLDEREHTIEEWKELIYKEVMDLEERTKNGVIRGQPSPLAQVQQ

Variants of: B1

Variant	screen value
chain 1 P13H	1.44 Z-score of the enrichment rate within one screen of 711 sequences
chain 1 P13L	1.38 Z-score of the enrichment rate within one screen of 711 sequences
chain 1 P13S	1.22 Z-score of the enrichment rate within one screen of 711 sequences
chain 1 P13C	1.25 Z-score of the enrichment rate within one screen of 711 sequences
chain 1 A15C	1.49 Z-score of the enrichment rate within one screen of 711 sequences
chain 1 A15V	1.42 Z-score of the enrichment rate within one screen of 711 sequences
chain 1 A15W	1.84 Z-score of the enrichment rate within one screen of 711 sequences
chain 1 A15Q	1.51 Z-score of the enrichment rate within one screen of 711 sequences
chain 1 A15T	1.58 Z-score of the enrichment rate within one screen of 711 sequences
chain 1 A15E	1.37 Z-score of the enrichment rate within one screen of 711 sequences
chain 1 Q4A, chain 1 P8A	0.697 Z-score of the enrichment rate within one screen of 711 sequences
chain 1 Q4A, chain 1 P13A	1.2 Z-score of the enrichment rate within one screen of 711 sequences
chain 1 R7A, chain 1 L14A	-0.345 Z-score of the enrichment rate within one screen of 711 sequences
chain 1 R5D	-0.21 Z-score of the enrichment rate within one screen of 711 sequences
chain 1 R5I	0.772 Z-score of the enrichment rate within one screen of 711 sequences
chain 1 R5A, chain 1 P13A	0.748 Z-score of the enrichment rate within one screen of 711 sequences
chain 1 T9A, chain 1 L12A	-0.742 Z-score of the enrichment rate within one screen of 711 sequences
chain 1 L10R	-0.363 Z-score of the enrichment rate within one screen of 711 sequences
chain 1 L10V	-0.341 Z-score of the enrichment rate within one screen of 711 sequences
chain 1 L10G	-0.672 Z-score of the enrichment rate within one screen of 711 sequences
chain 1 L10A	-0.392 Z-score of the enrichment rate within one screen of 711 sequences
chain 1 P3D	1.22 Z-score of the enrichment rate within one screen of 711 sequences
chain 1 P3M	1.81 Z-score of the enrichment rate within one screen of 711 sequences
chain 1 P3V	1.59 Z-score of the enrichment rate within one screen of 711 sequences
chain 1 P3I	1.41 Z-score of the enrichment rate within one screen of 711 sequences

Variant	screen value
chain 1 R5A, chain 1 R7A	-0.162 Z-score of the enrichment rate within one screen of 711 sequences
chain 1 Q4A, chain 1 R7A	0.0948 Z-score of the enrichment rate within one screen of 711 sequences
chain 1 R7A, chain 1 L12A	-0.492 Z-score of the enrichment rate within one screen of 711 sequences
chain 1 P6H	1.12 Z-score of the enrichment rate within one screen of 711 sequences
chain 1 P6L	1.25 Z-score of the enrichment rate within one screen of 711 sequences
chain 1 P6F	1.06 Z-score of the enrichment rate within one screen of 711 sequences
chain 1 P6V	0.968 Z-score of the enrichment rate within one screen of 711 sequences
chain 1 R5A, chain 1 L10A	-0.687 Z-score of the enrichment rate within one screen of 711 sequences
chain 1 Q11A, chain 1 P13A	1.38 Z-score of the enrichment rate within one screen of 711 sequences
chain 1 R7A, chain 1 P8A	-0.277 Z-score of the enrichment rate within one screen of 711 sequences
chain 1 T9H	1.34 Z-score of the enrichment rate within one screen of 711 sequences
chain 1 T9W	1.21 Z-score of the enrichment rate within one screen of 711 sequences
chain 1 T9M	1.06 Z-score of the enrichment rate within one screen of 711 sequences
chain 1 T9E	0.507 Z-score of the enrichment rate within one screen of 711 sequences
chain 1 T9C	1.27 Z-score of the enrichment rate within one screen of 711 sequences
chain 1 L12A, chain 1 P13A	-0.381 Z-score of the enrichment rate within one screen of 711 sequences
chain 1 P6A, chain 1 L12A	-0.68 Z-score of the enrichment rate within one screen of 711 sequences
chain 1 P8A, chain 1 L10A	-0.67 Z-score of the enrichment rate within one screen of 711 sequences
chain 1 P8W	0.971 Z-score of the enrichment rate within one screen of 711 sequences
chain 1 P8Q	0.499 Z-score of the enrichment rate within one screen of 711 sequences
chain 1 P8V	0.848 Z-score of the enrichment rate within one screen of 711 sequences
chain 1 P8M	2.24 Z-score of the enrichment rate within one screen of 711 sequences
chain 1 P8A, chain 1 P13A	0.299 Z-score of the enrichment rate within one screen of 711 sequences
chain 1 R5A, chain 1 P8A	0.293 Z-score of the enrichment rate within one screen of 711 sequences
chain 1 Q4P	1.26 Z-score of the enrichment rate within one screen of 711 sequences

Variant	screen value
chain 1 Q4Y	1.67 Z-score of the enrichment rate within one screen of 711 sequences
chain 1 P8A, chain 1 L14A	-0.643 Z-score of the enrichment rate within one screen of 711 sequences
chain 1 Q11H	1.89 Z-score of the enrichment rate within one screen of 711 sequences
chain 1 Q11E	1.43 Z-score of the enrichment rate within one screen of 711 sequences
chain 1 Q11I	1.51 Z-score of the enrichment rate within one screen of 711 sequences
chain 1 Q11Y	2.41 Z-score of the enrichment rate within one screen of 711 sequences
chain 1 Q11T	2.32 Z-score of the enrichment rate within one screen of 711 sequences
chain 1 R7P	0.478 Z-score of the enrichment rate within one screen of 711 sequences
chain 1 R7V	0.194 Z-score of the enrichment rate within one screen of 711 sequences
chain 1 N16C	1.62 Z-score of the enrichment rate within one screen of 711 sequences
chain 1 N16A	1.29 Z-score of the enrichment rate within one screen of 711 sequences
chain 1 N16V	1.95 Z-score of the enrichment rate within one screen of 711 sequences
chain 1 N16L	1.52 Z-score of the enrichment rate within one screen of 711 sequences
chain 1 P3A, chain 1 P6A	0.9 Z-score of the enrichment rate within one screen of 711 sequences
chain 1 R5A, chain 1 L14A	-0.406 Z-score of the enrichment rate within one screen of 711 sequences
chain 1 L12C	-0.457 Z-score of the enrichment rate within one screen of 711 sequences
chain 1 L12P	-0.637 Z-score of the enrichment rate within one screen of 711 sequences
chain 1 L12V	-0.205 Z-score of the enrichment rate within one screen of 711 sequences
chain 1 R5A, chain 1 L12A	-0.522 Z-score of the enrichment rate within one screen of 711 sequences
chain 1 R7A, chain 1 N16A	0.334 Z-score of the enrichment rate within one screen of 711 sequences
chain 1 P3A, chain 1 P8A	0.357 Z-score of the enrichment rate within one screen of 711 sequences
chain 1 L14T	0.9 Z-score of the enrichment rate within one screen of 711 sequences
chain 1 L14I	1.9 Z-score of the enrichment rate within one screen of 711 sequences
chain 1 L14R	0.833 Z-score of the enrichment rate within one screen of 711 sequences
chain 1 L14K	0.866 Z-score of the enrichment rate within one screen of 711 sequences
